In patent US20150266922A1 (GEORG AUGUST UNIVERSITAT GOTTINGEN STIFTUNG OFFENTLICHEN …, published 2015):

B1: DPP9-arm peptide (285-VEVIHVPSPALEERKTDSYR-304) (peptide)
peptide: VEVIHVPSPALEERKTDSYR
notes: also called peptide corresponding to the extended arm of DPP9

Molecular target: T1, SUMO1 (UniProt P63165 1-97, limits assumed)
T1 construct: Immobilized on CnBr Sepharose beads or ELISA wells, or free in solution; also called S1
Assay: competition ELISA: SUMO1 pre-incubated with the peptide, then added to immobilized DPP9
Protocol: ELISA: A 96 well plate (Immuno 96 MicroWell™ Solid Plates, Nunc) was coated with 600 ng purified recombinant proteins per well in 100 μl TB, overnight at 4° C. Next, wells were blocked with ELISA buffer (TB supplemented with 3% BSA) for 1 h at room temperature. After blocking, recombinant interacting proteins were added to the wells. Following 2 hours of incubation at 25° C., wells were washed four times. […] After incubation with secondary antibodies, wells were washed with ELISA buffer and ddH20. Reactions were developed with TMB-substrate reagent set from BD (OptEIA substrate). Absorbance was measured at 420 nm on an Appliskan microplate fluorimeter (Thermo Scientific) and the Skanit software. Experiments were performed at least three times, in triplicates.

T1 sequence (P63165 1-97 limits assumed): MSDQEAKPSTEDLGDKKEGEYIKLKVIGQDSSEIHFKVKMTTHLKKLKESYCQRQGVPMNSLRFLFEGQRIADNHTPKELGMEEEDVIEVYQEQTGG

binding result | Binder
binds | B1

Molecular target: T2, Dipeptidyl peptidase 9 (DPP9), recombinant wild-type (human, UniProt Q86TI2 1-863)
T2 sequence (Q86TI2 other isoform, or with tags, fused parts or gaps limits assumed, form in doubt): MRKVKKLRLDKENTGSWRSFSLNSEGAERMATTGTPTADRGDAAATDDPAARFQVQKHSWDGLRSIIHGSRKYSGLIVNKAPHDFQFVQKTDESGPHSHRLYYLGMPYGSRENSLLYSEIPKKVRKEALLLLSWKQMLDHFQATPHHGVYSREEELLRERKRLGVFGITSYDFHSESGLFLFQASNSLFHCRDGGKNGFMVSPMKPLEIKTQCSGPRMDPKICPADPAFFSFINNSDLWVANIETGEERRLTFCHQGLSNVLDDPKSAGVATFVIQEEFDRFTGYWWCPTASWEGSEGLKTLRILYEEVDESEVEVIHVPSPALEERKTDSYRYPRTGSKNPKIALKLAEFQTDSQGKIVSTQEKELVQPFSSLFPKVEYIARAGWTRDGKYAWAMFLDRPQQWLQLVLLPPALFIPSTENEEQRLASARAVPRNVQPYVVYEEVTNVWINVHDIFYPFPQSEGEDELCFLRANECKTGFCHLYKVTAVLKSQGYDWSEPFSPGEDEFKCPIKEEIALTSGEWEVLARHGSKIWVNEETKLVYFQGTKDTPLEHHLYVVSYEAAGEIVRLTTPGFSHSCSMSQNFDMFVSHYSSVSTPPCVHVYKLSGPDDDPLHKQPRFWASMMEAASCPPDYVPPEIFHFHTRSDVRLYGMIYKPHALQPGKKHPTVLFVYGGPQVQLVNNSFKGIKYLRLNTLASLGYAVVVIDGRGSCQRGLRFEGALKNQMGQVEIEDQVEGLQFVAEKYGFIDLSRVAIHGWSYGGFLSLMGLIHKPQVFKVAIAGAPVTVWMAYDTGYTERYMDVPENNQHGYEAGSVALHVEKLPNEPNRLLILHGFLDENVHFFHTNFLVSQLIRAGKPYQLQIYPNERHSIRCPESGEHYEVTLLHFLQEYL
Assay: cell-based or functional assay

% DPP9 activity (Mean), 14 µM peptide | Binder
79.8% | RFLFEGQRIADNH [… (SEQ ID NO: 23)]
74.9% | SLRFLFDGQRIADNH [SLRFLFDGQRIADNH (SEQ ID NO: 17)]
26.9% | SLRFLWEGQRIADNH [SLRFLWEGQRIADNH (SEQ ID NO: 18)]
29.1% | SLRFLFEGQRI [… (SEQ ID NO: 27)]
55.9% | FLFEGQRI [… (SEQ ID NO: 33)]
18.4% | SLRFLFEGQR [… (SEQ ID NO: 28)]
19.5% | SLRFLFEAQRIADNH [SLRFLFEAQRIADNH (SEQ ID NO: 22)]
28.6% | SLRFLVEGQRIADNH [SLRFLVEGQRIADNH (SEQ ID NO: 19)]
72.9% | SLRFLAEGQRIADNH [SLRFLAEGQRIADNH (SEQ ID NO: 21)]
56.4% | SLRFLFEGQRIADNR [SLRFLFEGQRIADNR (SEQ ID NO: 16)]
42.7% | LFEGQRIADNH [… (SEQ ID NO: 24)]
49% | FLIEGQRI [FLIEGQRI (SEQ ID NO: 36)]
38.4% | FLFEGQRIA [… (SEQ ID NO: 32)]
66.4% | RFLFEGQRIAD [… (SEQ ID NO: 31)]

Molecular target: T2, Dipeptidyl peptidase 9 (DPP9), …
Assay: cell-based or functional assay
Remark: another data set of the same source

% DPP9 activity (Mean), 10 µM peptide | Binder
16.3% | SLRFLYAG [SLRFLYAG (SEQ ID NO: 40)]
91.5% | RRRRSLRFLYAG [RRRRSLRFLYAG (SEQ ID NO: 47)]
23.9% | SLRFLYEGAAA [SLRFLYEGAAA (SEQ ID NO: 45)]
15.3% | SLRFLFAG [SLRFLFAG (SEQ ID NO: 39)]
29.2% | TLRFLFEG [TLRFLFEG (SEQ ID NO: 41)]
92.2% | RRRRSLRFLFEG [RRRRSLRFLFEG (SEQ ID NO: 46)]
91.2% | AAASLRFLYEG [AAASLRFLYEG (SEQ ID NO: 44)]
